{
  "source": "paper PMC2845083",
  "molecular_target": "6xHis-hKNL1 fragment (amino acids 1-86), Ser-Asp phospho-mimetic mutations in the SILK and RVSF motifs (human) (UniProt Q8NG31)",
  "assay": "pull-down",
  "data": [
    {"substance": "recombinant hPP1γ (protein phosphatase 1 gamma catalytic subunit) (from UniProt P36873 1-323) (enzyme)", "values": [
      {"measurement": "reduction of binding against wild type", "result": "> 70", "unit": "%"}
    ]}
  ]
}
